Values of other authors in PMC9428257.
Values joined by “and” are separate entries in the source; they are usually repeats but may differ in a detail not shown here. Equal values may be shown once. Read-outs that look alike come from different tables or passages of the source.

Tests used:
[1] = target: APRIL (Homo sapiens) (UniProt O75888)
[2] = target: APRIL (Homo sapiens) (UniProt O75888); remark: listed apart in the source
[3] = target: BAFF (Homo sapiens) (UniProt Q9Y275)
Sequence of BAFF (Homo sapiens) (Q9Y275 134-285): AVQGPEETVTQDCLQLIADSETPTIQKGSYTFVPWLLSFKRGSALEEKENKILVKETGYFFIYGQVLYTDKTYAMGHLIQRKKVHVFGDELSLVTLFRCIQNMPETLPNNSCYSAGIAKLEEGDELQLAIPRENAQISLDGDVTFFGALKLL

Sequence of APRIL (Homo sapiens) (O75888 105-250): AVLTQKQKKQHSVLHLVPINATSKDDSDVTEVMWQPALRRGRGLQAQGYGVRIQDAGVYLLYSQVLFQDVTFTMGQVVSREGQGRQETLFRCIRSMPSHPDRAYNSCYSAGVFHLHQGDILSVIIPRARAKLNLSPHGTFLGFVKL
Sequence of sBCMA ECD (Q02223 78-184): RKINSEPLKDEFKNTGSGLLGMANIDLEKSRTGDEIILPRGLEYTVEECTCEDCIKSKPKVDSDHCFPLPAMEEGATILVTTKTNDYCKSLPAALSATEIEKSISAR
Sequence of sTACI-Fc ECD (O14836 1-165): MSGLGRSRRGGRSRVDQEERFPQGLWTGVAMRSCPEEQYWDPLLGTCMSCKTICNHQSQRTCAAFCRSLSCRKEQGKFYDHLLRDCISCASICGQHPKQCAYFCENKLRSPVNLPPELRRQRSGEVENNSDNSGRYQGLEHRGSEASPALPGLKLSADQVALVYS

| Substance | Kd [1] | Kd [2] | Kd [3] |
| --- | --- | --- | --- |
| sBCMA ECD (from UniProt Q02223) | 0.025 nM and 0.048 nM | – | – |
| sTACI-Fc ECD (from UniProt O14836) | – | 6.4 nM | 0.16 nM |
